This is an account of results in patent US20210270842A1 (DYAX, published 2021).

Experiment [1] has as its target T1, cleaved high molecular weight kininogen (HMWK) (human, UniProt P01042 19-380; P01042 390-644).
T1 construct: also called cleaved HMWK; 2-chain HMWK
T1 sequence 1: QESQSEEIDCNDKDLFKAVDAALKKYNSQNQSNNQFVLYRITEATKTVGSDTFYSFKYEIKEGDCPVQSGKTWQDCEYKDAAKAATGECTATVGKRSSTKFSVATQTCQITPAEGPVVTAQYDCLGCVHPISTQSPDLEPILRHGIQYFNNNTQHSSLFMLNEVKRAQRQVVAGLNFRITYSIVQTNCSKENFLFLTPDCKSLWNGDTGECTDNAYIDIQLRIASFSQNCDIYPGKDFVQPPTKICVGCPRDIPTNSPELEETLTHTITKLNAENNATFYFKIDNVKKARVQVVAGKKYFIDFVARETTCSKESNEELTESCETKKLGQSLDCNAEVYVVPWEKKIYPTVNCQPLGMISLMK
T1 sequence 2: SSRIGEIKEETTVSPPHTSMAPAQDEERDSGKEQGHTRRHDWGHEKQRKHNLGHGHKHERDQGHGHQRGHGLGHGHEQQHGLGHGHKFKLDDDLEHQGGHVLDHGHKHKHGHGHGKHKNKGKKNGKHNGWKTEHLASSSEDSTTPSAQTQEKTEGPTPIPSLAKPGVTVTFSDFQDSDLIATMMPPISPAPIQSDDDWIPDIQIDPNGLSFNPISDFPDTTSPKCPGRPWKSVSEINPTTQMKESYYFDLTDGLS
Put plainly: sandwich ELISA with coated Fab; value = C, midpoint of the printed 4-P fit; 2-chain HMWK spiked into SBT assay buffer. The text has this:
(§1) Purified cleaved HMWK was spiked into SBT assay buffer (open circles), SBT assay buffer and analyzed in the presence of 10% plasma (squares), or HMWK-deficient plasma and analyzed in the presence of 10% plasma (triangles). Purified cleaved HMWK was also spiked into assay buffer and analyzed in the presence of 2.5% plasma (diamonds) or HMWK deficient plasma and analyzed in the presence of 2.5% plasma (closed circles). The y-axis presents the ELISA signal in absorbance units, and the x-axis presents the concentration of kininogen in μg/mL.
(§2) The following day, the plate was washed and then blocked with 2% BSA (Protease/IgG free) in PBS buffer. Following a wash, samples containing cleaved HMWK in 0.1% BSA buffer in PBS with 0.05% Tween-20 (2-Chain HMWK assay buffer). Purified protein standards (e.g., 2-chain HMWK, intact HMWK or LMWK) were spiked into HMWK-deficient plasma and diluted 1:320 in 2-chain HMWK assay buffer. Following plate washing with PBST, a mixture of 2 mouse monoclonal antibodies (11H05 and 13B12) at 1 μg/mL in 2-chain HMWK assay buffer were added for 1 hour at room temperature. […] Signal was detected by the addition of 3,3′,5,5′-tetramethylbenzidine (TMB), an HRP substrate. […] Hydrolysis of a TMB substrate was detected using a microplate reader at 450 nm-630 nm (FIG. 3). […] Using these immunoassay conditions, specifically binding to cleaved HMWK was detected.

For experiment [2], the target named is T1, cleaved high molecular weight kininogen …. In words: sandwich ELISA with coated Fab; value = C, midpoint of the printed 4-P fit; 2-chain HMWK spiked into assay buffer, analysed in 2.5% plasma.
Description: as §1, §2
In general terms: In an ELISA, binding on a coated surface is turned into a signal by an enzyme label.

Experiment [3] has the same target. In words: ELISA on coated M004-B04, 2-chain HMWK (in deficient plasma, diluted) titrated, no peptide (control); value = C, midpoint of the printed 4-P fit. On the procedure:
Following plate washing with PBST, a mixture of 2 mouse monoclonal antibodies (11H05 and 13B12) at 1 μg/mL in 2-chain HMWK assay buffer were added for 1 hour at room temperature. Unbound detection antibodies were washed and a 1:2000 dilution of goat anti-mouse secondary antibody conjugated to horseradish peroxidase (HRP) was added. The assay containing the secondary antibody was incubated for 1 hour at room temperature, and unbound secondary antibody was removed by washing with 2-chain HMWK assay buffer. Signal was detected by the addition of 3,3′,5,5′-tetramethylbenzidine (TMB), an HRP substrate. The reaction was stopped with phosphoric acid. Hydrolysis of a TMB substrate was detected using a microplate reader at 450 nm-630 nm (FIG. 3). […] Using these immunoassay conditions, specifically binding to cleaved HMWK was detected.
To perform the assay, the kininogen peptides were diluted to 250 μg/mL and allowed to preincubate on assay plate. Then, purified 2-chain HMWK in deficient human plasma was diluted 160 and then added to plate.

Experiment [4] concerns the target T2, intact high molecular weight kininogen (HMWK) (Homo sapiens, UniProt P01042 19-644).
T2 construct: also called intact HMWK; 1-chain HMWK
T2 sequence: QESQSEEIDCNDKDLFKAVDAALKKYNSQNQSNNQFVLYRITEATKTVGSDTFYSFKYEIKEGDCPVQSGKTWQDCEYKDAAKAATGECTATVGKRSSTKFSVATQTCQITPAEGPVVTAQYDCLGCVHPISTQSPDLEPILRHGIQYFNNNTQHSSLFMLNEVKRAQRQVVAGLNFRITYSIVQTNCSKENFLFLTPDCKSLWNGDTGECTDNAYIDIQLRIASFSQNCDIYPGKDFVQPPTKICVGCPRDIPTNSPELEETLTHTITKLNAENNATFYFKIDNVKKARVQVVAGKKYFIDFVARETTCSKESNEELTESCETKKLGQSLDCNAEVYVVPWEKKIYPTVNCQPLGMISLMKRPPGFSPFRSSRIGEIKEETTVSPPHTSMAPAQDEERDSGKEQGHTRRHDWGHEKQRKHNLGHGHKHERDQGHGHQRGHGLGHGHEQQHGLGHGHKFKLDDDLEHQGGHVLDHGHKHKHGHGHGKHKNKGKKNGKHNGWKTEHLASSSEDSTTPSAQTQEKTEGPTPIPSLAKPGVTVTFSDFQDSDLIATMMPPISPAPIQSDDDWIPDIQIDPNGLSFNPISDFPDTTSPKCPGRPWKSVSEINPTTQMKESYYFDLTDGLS
In words: optimized sandwich ELISA: M004-B04 capture, detection 11H05 + 13B12; value = C of the printed 4-P fit; the curve has no upper plateau in the range: last point about 0.95 at about 250 ng/mL, fitted line about 1.5 at 1000 ng/mL, so C and D are extrapolated. The protocol:
The following day, the plate was washed and then blocked with 2% BSA (Protease/IgG free) in PBS buffer. Following a wash, samples containing cleaved HMWK in 0.1% BSA buffer in PBS with 0.05% Tween-20 (2-Chain HMWK assay buffer). Purified protein standards (e.g., 2-chain HMWK, intact HMWK or LMWK) were spiked into HMWK-deficient plasma and diluted 1:320 in 2-chain HMWK assay buffer. Following plate washing with PBST, a mixture of 2 mouse monoclonal antibodies (11H05 and 13B12) at 1 μg/mL in 2-chain HMWK assay buffer were added for 1 hour at room temperature. Unbound detection antibodies were washed and a 1:2000 dilution of goat anti-mouse secondary antibody conjugated to horseradish peroxidase (HRP) was added. The assay containing the secondary antibody was incubated for 1 hour at room temperature, and unbound secondary antibody was removed by washing with 2-chain HMWK assay buffer. Signal was detected by the addition of 3,3′,5,5′-tetramethylbenzidine (TMB), an HRP substrate. The reaction was stopped with phosphoric acid. Hydrolysis of a TMB substrate was detected using a microplate reader at 450 nm-630 nm (FIG. 3). […] Using these immunoassay conditions, specifically binding to cleaved HMWK was detected.

B1: 559B-M0004-B04 (Fab, V domains shown)
VH: EVQLLESGGGLVQPGGSLRLSCAASGFTFSFYVMVWVRQAPGKGLEWVSGISPSGGNTAYADSVKGRFTISRDNSKNTLYLQMNSLRAEDTAVYYCARKLFYYDDTKGYFDFWGQGTLVTVSS
VL: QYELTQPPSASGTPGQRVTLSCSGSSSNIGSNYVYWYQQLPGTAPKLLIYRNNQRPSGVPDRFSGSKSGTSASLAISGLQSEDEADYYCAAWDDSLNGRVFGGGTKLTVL
notes: also called M004-B04
Take B1: the EC50 (commonly the midpoint of the concentration-response curve) in experiment [1] is 226 µg/mL; in experiment [2] it was 204 µg/mL; in experiment [3], 0.0123 µg/mL; in experiment [4] it was 0.355 µg/mL.
